# Test results from patent US20240368233A1 (University of Washington, published 2024).
# T1: DFX
# T1 construct: Bivalent connector
# T1 chain: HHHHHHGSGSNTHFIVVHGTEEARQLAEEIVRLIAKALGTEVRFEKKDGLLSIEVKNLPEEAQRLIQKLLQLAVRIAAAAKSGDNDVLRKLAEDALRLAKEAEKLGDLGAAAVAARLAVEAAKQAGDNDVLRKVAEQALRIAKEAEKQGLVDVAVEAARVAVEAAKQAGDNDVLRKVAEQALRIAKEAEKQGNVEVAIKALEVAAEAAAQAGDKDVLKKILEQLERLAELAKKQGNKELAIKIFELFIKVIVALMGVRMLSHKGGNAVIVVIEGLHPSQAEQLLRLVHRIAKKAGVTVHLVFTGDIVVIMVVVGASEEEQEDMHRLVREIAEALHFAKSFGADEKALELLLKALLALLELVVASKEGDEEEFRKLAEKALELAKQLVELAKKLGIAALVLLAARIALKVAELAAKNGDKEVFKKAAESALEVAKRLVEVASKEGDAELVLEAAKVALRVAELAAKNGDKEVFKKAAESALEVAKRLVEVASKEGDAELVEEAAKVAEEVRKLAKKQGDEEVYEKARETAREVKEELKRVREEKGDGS
# T2: TF10
# T2 construct: Trivalent connector
# T2 chain: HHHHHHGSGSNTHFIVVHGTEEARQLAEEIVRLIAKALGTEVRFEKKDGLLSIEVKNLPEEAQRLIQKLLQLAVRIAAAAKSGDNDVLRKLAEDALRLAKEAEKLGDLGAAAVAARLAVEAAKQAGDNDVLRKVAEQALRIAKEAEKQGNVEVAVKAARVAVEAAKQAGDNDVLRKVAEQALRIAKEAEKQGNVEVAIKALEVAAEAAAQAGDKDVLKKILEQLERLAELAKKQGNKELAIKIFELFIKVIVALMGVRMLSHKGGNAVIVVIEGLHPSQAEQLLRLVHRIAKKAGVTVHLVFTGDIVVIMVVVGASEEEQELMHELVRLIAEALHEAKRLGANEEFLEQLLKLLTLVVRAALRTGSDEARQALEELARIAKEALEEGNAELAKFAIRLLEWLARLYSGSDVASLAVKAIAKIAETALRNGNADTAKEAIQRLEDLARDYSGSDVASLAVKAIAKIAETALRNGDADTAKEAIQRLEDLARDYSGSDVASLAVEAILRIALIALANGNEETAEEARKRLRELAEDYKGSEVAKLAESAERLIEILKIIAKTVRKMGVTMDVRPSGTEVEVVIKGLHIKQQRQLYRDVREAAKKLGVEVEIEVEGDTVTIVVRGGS
# T3: DFA0
# T3 construct: Bivalent connector
# T3 chain: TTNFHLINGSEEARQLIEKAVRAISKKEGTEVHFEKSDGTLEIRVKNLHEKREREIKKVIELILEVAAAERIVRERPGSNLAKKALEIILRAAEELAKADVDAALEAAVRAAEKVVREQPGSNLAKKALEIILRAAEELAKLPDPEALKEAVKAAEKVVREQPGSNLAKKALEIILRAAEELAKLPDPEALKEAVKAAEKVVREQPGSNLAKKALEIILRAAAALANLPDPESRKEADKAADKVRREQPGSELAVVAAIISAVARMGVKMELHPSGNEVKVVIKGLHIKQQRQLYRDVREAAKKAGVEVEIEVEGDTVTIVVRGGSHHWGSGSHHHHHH
# T4: DF275A-1
# T4 construct: Bivalent connector
# T4 chain: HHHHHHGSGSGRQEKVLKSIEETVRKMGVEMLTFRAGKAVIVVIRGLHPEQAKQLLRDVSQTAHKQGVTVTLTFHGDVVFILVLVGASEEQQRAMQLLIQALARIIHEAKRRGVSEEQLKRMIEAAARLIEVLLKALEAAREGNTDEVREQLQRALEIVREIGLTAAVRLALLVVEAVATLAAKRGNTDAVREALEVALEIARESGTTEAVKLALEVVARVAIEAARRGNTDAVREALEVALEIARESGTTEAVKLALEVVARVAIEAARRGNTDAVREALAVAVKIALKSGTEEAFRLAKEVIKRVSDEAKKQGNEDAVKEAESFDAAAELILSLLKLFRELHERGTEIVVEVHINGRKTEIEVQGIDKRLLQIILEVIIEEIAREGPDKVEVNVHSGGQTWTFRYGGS
# T5: 101B62
# T5 construct: also called LHD101B62
# T5 chain: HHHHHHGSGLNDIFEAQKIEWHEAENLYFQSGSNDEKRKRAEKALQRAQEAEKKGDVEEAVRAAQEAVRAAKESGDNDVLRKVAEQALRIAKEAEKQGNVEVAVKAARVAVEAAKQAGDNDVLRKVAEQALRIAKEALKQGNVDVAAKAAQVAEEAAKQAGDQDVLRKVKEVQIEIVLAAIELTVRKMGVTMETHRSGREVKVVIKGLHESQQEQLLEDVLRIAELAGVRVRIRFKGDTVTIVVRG
# T6: LHD274 B62
# T6 construct: also called LHD274 B DHR62 C
# T6 single chain, LHD274 chain B fused to DHR62: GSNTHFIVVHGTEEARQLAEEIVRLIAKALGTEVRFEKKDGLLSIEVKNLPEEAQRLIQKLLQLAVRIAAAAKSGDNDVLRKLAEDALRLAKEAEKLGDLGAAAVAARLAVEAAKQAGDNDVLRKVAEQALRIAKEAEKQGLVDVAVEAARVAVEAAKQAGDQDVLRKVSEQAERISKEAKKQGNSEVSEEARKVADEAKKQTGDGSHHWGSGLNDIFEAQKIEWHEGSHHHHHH
# T7: 274B53
# T7 construct: also called LHD274B DHR53 stop
# T7 chain: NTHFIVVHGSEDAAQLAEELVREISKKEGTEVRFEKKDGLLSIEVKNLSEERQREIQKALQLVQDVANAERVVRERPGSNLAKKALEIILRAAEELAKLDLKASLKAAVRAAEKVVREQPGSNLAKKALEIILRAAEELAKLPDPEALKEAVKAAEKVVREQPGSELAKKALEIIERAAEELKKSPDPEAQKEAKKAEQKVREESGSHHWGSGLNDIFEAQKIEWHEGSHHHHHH
# B1: 317B (designed binder)
# chain: GGSDVEWRFTNVSEEEQEKLARFVLQVAQLAGTQVIFTTRPGELRIRVHNLDELLALAIELYAQGLRLGDKHVQHLAKKAIEAILRGDRKLARFLLEAARAMSRATERPGSNLAKKALEEILRLAEELAKDPDPESLKAAVHCAEFVVRYQPGSNLAKKALEIILRAAEELAKLPDPEALKEAVKAAEKVVREQPGSELAKKALEIIERAAEELKKSPDPEAQKEAKKAEQKVREERPGSGGSGSHHWGSGSHHHHHH
# notes: also called LHD317 B; LHD317B
# B2: 101B82 (designed binder)
# chain: HHHHHHGSGLNDIFEAQKIEWHEAENLYFQSGSDEEVQEAVERAEELREEAEELIKKARKTGDAELLRKALEALEEAVRAVEEAIKRNPDNDEAVETAVRLARELKKVAEELQERAKKTGDAELLKLALRALEVAVRAVELAIKSNPDNDEAVETAVRLARELAKVAEELIERAKKTGDKELLKLAKRALEVAMRAVSLALKSNPDNEEARRVAAELVLLVIRAAVIEMGVTMEEHRSGNRVKVVIKGLHESQQEQLLEDVLRAAEIAGVRVRIRFKGDTVTIVVEG
# B3: 206B62-2 (designed binder)
# chain: HHHHHHGSGLNDIFEAQKIEWHEAENLYFQSGSNDEKRKRAEKALQRAQEAEKKGDVEEAVRAAQEAVRAAKESGDNDVLRKVAEQALRIAKEAEKQGNVEVAVKAARVAVEAAKQAGDNDVLRKVAEQALRIAKEAEKQGNVPVAVKALLVALNAAVAAGDQDVLRKISEQAERARKLAEKQGDKLLAFVLALISLVAQMGVPMEIHPSGNEVKVVIKGLHKSQQEQLLKLVLKLANKLGVNVHISFRGDTVTIRVRGGS
# B4: DF206 (designed binder)
# chain: NTHFIVVHGTEEARQLAEEIVRLIAEALGTEVRFEKKDGLLSIEVKNLPEEAQRLIQKLLQLAVRIAAAAESGDNDQLRELAEDALRLAEEAEKLGDLGAAAVAARLAVEAAKQAGDNDVLREVAEQALEIAKEAEKQGLVDVAVEAARVAVEAAKQAGDNDVLRKVAEQALRIAKEAEKQGNVEVAVKAARVAVEAAKQAGDNDVLRKVAEQALRIAKEAEKQGNVEVAALALVVAVNAAQAAGDQDLLRKIAEQAERLAKLAEKQGRRDVALLASIIALVAKMGVPMEVHPSGNEVKVVIKGLHKSQQEQLLKEVLKAANKLGVNVHISFRGDTVTIRVRGGGSHHWGSGSHHHHHH
# notes: Bivalent connector
# B5: DFB0 (designed binder)
# chain: NTHFIVVHGSEDAAQLAEELVREISKKEGTEVRFEKKDGLLSIEVKNLSEERQREIQKALQLVQDVANAERVVRERPGSNLAKKALEIILRAAEELAKLDLKASLKAAVRAAEKVVREQPGSNLAKKALEIILRAAEELAKLPDPEALKEAVKAAEKVVREQPGSNLAKKALEIILRAAEELAKLPDPEALKEAVKAAEKVVREQPGSNLAKKALEIILRAAAALANLPDPESRKEADKAADKVRREQPGSELAVVAAIISAVARMGVKMELHPSGNEVKVVIKGLHIKQQRQLYRDVREAAKKAGVEVEIEVEGDTVTIVVRGGSHHWGSGSHHHHHH
# notes: Bivalent connector
# B6: LHD274 A64 (designed binder)
# single chain, LHD274 chain A fused to DHR64: GSTTNFHLINGSEEARQLIQKAVEAISKKEGTEVHFEKSDGTLEIRVKNLHPRQEDLIKKFIEALLLALVAKGELEQAEKEGDAEVALRAVEKVVRVAELLLRLAKEAGSEEALKAALEIAEQAARLAKRVLELAEKQGDAEVALRAVELVVRVAELLLRIAKESGSEEALERALRVAEEAARLAKRVLELAEKQGDAEVARRAVELVKRVAELLERIARESGSEEAKERAERVREEARELQERVKELREREGDGSHHWGSGLNDIFEAQKIEWHEGSHHHHHH
# How the values were obtained:
# [1] = biological target: the molecule itself; assay: SEC titration of the protomer alone at several injection concentrations (Superdex 200, normalised A230); self-association
# DFX = biological target: T1, DFX; assay: negative-stain EM of the heterotrimer; components named in the legend
# Procedure: (§1) SEC peak fractions were concentrated prior to negative stain EM screening. Samples were then immediately diluted 5 to 150 times in TBS buffer (25 mM Tris pH 8.0, 25 mM NaCl) depending on sample concentration. A final volume of 5 μL was applied to negatively glow discharged, carbon-coated 400-mesh copper grids (01844-F, TedPella, Inc.), then washed with Milli-Q™ Water and stained using 0.75% uranyl formate as previously described (53). Air-dried grids were imaged on a FEI Talos L120C TEM (FEI Thermo Scientific, Hillsboro, OR) equipped with a 4K×4K Gatan OneView™ camera at a magnification of 57,000× and pixel size of 2.51. Micrographs were imported into CisTEM software or cryoSPARC™ software and a circular blob picker was used to select particles which were then subjected to 2D classification. Ab initio reconstruction and homogeneous refinement in Cn symmetry were used to generate 3D electron density maps (54, 55).
# TF10 = biological target: T2, TF10; assay: SEC (A230) of A---, -BCD and ABCD and negative-stain EM; components named in the legend of FIG. 17A, which paragraph 104 ties to FIG. 4A
# Procedure: (§2) Complexes and individual components were diluted in 20 mM Tris pH 8.0, 100 mM NaCl. After o/n equilibration of the mixtures at room temperature or 4 degrees C., 500 ul of sample was injected onto a Superdex™ 200 10/300 increase GL (dimers, linear assemblies) or Superose™ 6 increase 10/300 GL (symmetric assemblies) (all columns from GE healthcare) using the absorbance at 230 nm or 473 nm (for GFP tagged components) as read-out. Dimers were mixed at monomer concentrations of 5 μM or higher. Trimer and ABCD tetramer mixtures contained 5 μM of the bivalent connector, and 7.5 μM of each terminal cap (lower absolute concentrations with the same ratios were used for some trimers). ABCA tetramer mixtures contained 5 μM per bivalent connector and 15 μM terminal cap. The hexamer mixture contained 3 μM of components C and D, 3.6 μM of B and E, and 4.4 μM of A and F. The branched assembly shown in FIG. 4A contained 2.8 μM of the trivalent connector and 4 μM of each cap. For the exchange experiment shown in FIG. 5A, the ABC trimer was preincubated at concentrations of 6 μM B and 9 μM each of A and C. C′ was then added to reach a final concentration of 2 μM B, 3 μM each of A and C, and 6 μM C′.
# as §1, with “Ab initio reconstruction and homogeneous refinement in Cn symmetry were used to generate 3D electron density maps (54, 55).” left out
# DFA0 = biological target: T3, DFA0; assay: SEC of mixed components; trimer listed in Table 6
# Procedure: as §2
# DF275A-1 = biological target: T4, DF275A-1; assay: SEC of mixed components; trimer listed in Table 6
# Procedure: as §2
# 101B62 = biological target: T5, 101B62; assay: SEC of mixed components; linear tetramer listed in Table 6, neighbours in the chain
# Procedure: as §2
# LHD274 B62 = biological target: T6, LHD274 B62; assay: SEC binding assay (Superdex 200, normalised A230) of A, B and the mixture AB
# Procedure: as §2
# 274B53 = biological target: T7, 274B53; assay: as above
# Procedure: as §2
binder,measurement,setting,value
B1,binding result,[1],binds
same,binding result,DFX,binds
same,binding result,TF10,binds
B2,binding result,DFA0,binds
B3,binding result,DF275A-1,binds
B4,binding result,DF275A-1,binds
B5,binding result,101B62,binds
B6,binding result,LHD274 B62,binds
same,binding result,274B53,binds
